The target of this experiment is Rad51 (S. cerevisiae) (UniProt P25454). Kind of experiment: co-IP; Rad51 immunoprecipitated with anti-Rad51 antibody from yeast lysates (Rad51 overexpressed from a plasmid), IP fraction blotted for Hsp82 and Aha1; strains WT, hda1Δ, aha1Δ and hsp82 mutant strains (K27Q, K27R, K274Q, K274R, K178R); rad51Δ as negative control; blots quantified with Image J.
Chain of UniProt P25454 (P25454 whole entry): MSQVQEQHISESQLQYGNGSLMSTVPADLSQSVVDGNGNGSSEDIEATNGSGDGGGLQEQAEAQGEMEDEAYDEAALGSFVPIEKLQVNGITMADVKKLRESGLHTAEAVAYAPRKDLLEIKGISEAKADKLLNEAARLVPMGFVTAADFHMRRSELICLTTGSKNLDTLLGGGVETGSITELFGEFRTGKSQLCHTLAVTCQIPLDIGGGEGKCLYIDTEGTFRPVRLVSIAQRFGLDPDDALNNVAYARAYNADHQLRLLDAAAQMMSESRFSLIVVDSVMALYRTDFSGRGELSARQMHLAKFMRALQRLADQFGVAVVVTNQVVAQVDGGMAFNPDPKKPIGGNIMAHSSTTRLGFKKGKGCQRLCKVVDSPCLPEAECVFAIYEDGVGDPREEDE

“Hsp82 (WT) (from UniProt P02829 1-709) (natural protein)” displayed a fold reduction of association in the aha1Δ strain against the WT strain of 2 fold and a fold reduction of association in the hda1Δ strain against the WT strain of 5 fold.
